Series [1] has as its target P0AE08. Description: SEC; 10 µM protein (oxidized form) incubated at 53 °C for 60 min in 50 mM phosphate pH 7.0, cooled to room temperature, centrifuged; Superdex 200 10/300 GL in 50 mM Tris pH 7; dimers to HMW oligomers.
The target of series [2] is P0AE08. Description: SEC; 10 µM reduced EcAhpC (pre-reduced with 20 mM DTT, desalted) incubated at 53 °C for 60 min in 50 mM phosphate pH 7.0 with 1 mM TCEP, centrifuged; Superdex 200 10/300 GL; to HMW oligomers.
For series [3], the target named is P0AE08. Description: SEC; 10 µM oxidized EcAhpC incubated at 50 °C for 60 min in 50 mM phosphate pH 7.0, cooled to room temperature, centrifuged; Superdex 200 10/300 GL in 50 mM Tris pH 7; dimers to HMW oligomers.
For series [4], the target named is P0AE08. Put plainly: SEC; 10 µM oxidized EcAhpC incubated at 48 °C for 60 min in 50 mM phosphate pH 7.0, cooled to room temperature, centrifuged; Superdex 200 10/300 GL in 50 mM Tris pH 7; dimers to HMW oligomers.
Series [5] deals with the molecule itself. Put plainly: dynamic light scattering; 1 mg/ml (50 µM) reduced EcAhpC (5 mM DTT) in 50 mM phosphate pH 7.0, equilibrated 10 min at 25 °C.
Series [6] deals with the molecule itself. Description: SEC; 10 µM protein (oxidized form) incubated at 25 °C for 60 min in 50 mM phosphate pH 7.0, centrifuged; Superdex 200 10/300 GL in 50 mM Tris pH 7 at room temperature; mass estimated from standards.

B1: Escherichia coli alkyl hydroperoxide reductase subunit C (EcAhpC), His-tagged recombinant wild type (protein)
chain: MSLINTKIKPFKNQAFKNGEFIEITEKDTEGRWSVFFFYPADFTFVCPTELGDVADHYEELQKLGVDVYAVSTDTHFTHKAWHSSSETIAKIKYAMIGDPTGALTRNFDNMREDEGLADRATFVVDPQGIIQAIEVTAEGIGRDASDLLRKIKAAQYVASHPGEVCPAKWKEGEATLAPSLDLVGKI
With B1, the “peak ratio (8.0 ml HMW peak to 15.5 ml dimer peak)” value in series [1] is on record as 0.9:1; in series [3], 0.2:1; in series [4] it was 0.02:1. For the same protein, the “peak ratio (8 ml HMW peak to 16.5 ml peak)” value in series [2] was “about 10:1”.

B2: Escherichia coli alkyl hydroperoxide reductase subunit C (EcAhpC), His-tagged recombinant wild type (enzyme, UniProt P0AE08 1-187, looked up)
chain: B1 chain
modifications: disulfide bonded (referred as oxidized form) as purified; reduced with DTT (kept with TCEP or DTT) in the assays marked as reduced
notes: Alkyl hydroperoxide reductase subunit C (AhpC) of Escherichia coli, the entire enzyme; the C-terminal extension is printed as aa 173-187; The same construct was used as the oxidized (intermolecular disulphide) and as the reduced form; the assay's format tells which; also called WT EcAhpC; oxidized EcAhpC; source: E. coli, purified (Ni2+-NTA, gel filtration on Superdex 75)
Regarding B2, the “stoichiometry N” value was 10 in series [5] and 2 in series [6].

The values above are taken from paper PMC6147784, “Molecular mechanism of the Escherichia coli AhpC in the function of a chaperone under heat-shock conditions” (Scientific Reports, 2018).
